Source: publication PMC4468108

What was measured:
DsRmCh [1] = molecular target: DsRmCh (UniProt Q9U6Y8); experiment: AUC; sedimentation velocity, 40,000 RPM overnight, PBS pH 7.4, sample diluted to A575 of 0.5, c(m) distribution in Sedfit
DsRmCh [2] = molecular target: DsRmCh (UniProt Q9U6Y8); experiment: SEC; Superdex 75 10/300, 100 μl of purified protein, absorbance at 575 nm
DsRmChΔ5 = DsRmChΔ5 (UniProt Q9U6Y8); experiment: AUC; sedimentation velocity, 40,000 RPM overnight, PBS pH 7.4, sample diluted to A575 of 0.5, c(m) distribution in Sedfit

| stoichiometry N (DsRmCh [1]) | stoichiometry N (DsRmCh [2]) | stoichiometry N (DsRmChΔ5) | Substance |
| --- | --- | --- | --- |
| 4 | 4 |  | DsRmCh (from UniProt Q9U6Y8 1-225) |
|  |  | 4 | DsRmChΔ5 (from UniProt Q9U6Y8 1-220) |
